Substitutions are numbered along the chain they refer to.
B1: wt PyA+PyB RNA probe (HCMV MIE intron 4) (ssRNA)
RNA: CACGCCUGUGAAACCGUACUAAGUCUCCCGUGUCUUCUUAUCACCAUCAG
B2: dPyB probe (ssRNA)
RNA: B1 RNA with U35A, U36A, C37G
B3: dPyAB probe (ssRNA)
RNA: B1 RNA with U26A, C27G, U35A, U36A, C37G

Experiments:
U2AF65 [1] = molecular target: T1, U2AF65 (UniProt P26368 P26368:2-475); test: EMSA; native PAGE; details: label: radiolabel
U2AF65 [2] = molecular target: T1, U2AF65; test: EMSA; details: label: radiolabel

T1 sequence (P26368 2-475, one chain of several): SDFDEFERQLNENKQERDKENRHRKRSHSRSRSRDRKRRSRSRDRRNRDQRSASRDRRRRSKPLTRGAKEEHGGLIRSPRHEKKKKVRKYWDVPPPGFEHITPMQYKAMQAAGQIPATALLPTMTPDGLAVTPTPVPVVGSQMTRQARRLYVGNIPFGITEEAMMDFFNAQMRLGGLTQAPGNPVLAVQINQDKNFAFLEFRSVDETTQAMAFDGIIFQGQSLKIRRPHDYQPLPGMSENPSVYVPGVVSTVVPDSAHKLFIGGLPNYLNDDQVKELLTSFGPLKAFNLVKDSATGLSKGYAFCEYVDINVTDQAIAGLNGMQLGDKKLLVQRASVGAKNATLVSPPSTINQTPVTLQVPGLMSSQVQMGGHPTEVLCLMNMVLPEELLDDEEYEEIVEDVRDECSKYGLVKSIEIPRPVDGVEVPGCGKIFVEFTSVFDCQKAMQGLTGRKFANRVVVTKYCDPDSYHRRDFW

Binder | binding result (U2AF65 [1]) | binding result (U2AF65 [2])
B1 | binds | –
B2 | – | no binding
B3 | – | no binding

Reference: patent publication US20240263180, “SMALL COMPLEMENTARY NUCLEIC ACIDS, COMPOSITIONS CONTAINING THE SAME, AND METHODS FOR USE AS ANTIVIRALS” (HOWARD UNIVERSITY, published 2024)
